# In US20250108100A1, “C-TERMINAL FRAGMENT OF APOLIPOPROTEIN E AND APPLICATION THEREOF IN INHIBITING y-SECRETASE ACTIVITY” (SYNPHATEC (SHANGHAI) BIOPHARMACEUTICAL TECHNOLOGY CO., LTD., priority 2022, published 2025):
# Target: purified human γ-secretase (NCT-V5-6×His; FLAG-PEN2; APH; PS1) (human) (UniProt Q92542)
# Experiment: cell-based or functional assay
# Sequence of ApoE2-3×FLAG (purified) (P02649 19-317 R176C): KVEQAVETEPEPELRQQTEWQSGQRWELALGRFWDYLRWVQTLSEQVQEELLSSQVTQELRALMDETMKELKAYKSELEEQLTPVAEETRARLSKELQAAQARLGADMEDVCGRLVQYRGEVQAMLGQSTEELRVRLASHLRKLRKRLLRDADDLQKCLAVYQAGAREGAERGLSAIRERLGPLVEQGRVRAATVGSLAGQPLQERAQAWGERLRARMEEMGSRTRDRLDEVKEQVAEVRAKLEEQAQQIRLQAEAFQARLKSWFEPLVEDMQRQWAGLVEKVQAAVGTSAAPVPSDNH
substance,measurement,value
ApoE2-3×FLAG (purified) (from UniProt P02649 19-317),IC50 for Aβ production on co-incubation of purified β-CTF and γ-secretase with a concentration series of ApoE2 (ELISA),1200 nM
same,half-inhibitory concentration (IC50) for Aβ40 production from purified β-CTF by purified γ-secretase (ELISA),1200 nM
